Key:
HLA-C on cells (human) = HLA-C on cells (human) (UniProt P10321); test: flow cytometry, IgG1 mAb on cells expressing HLA-C
HLA-A on cells (human) = HLA-A on cells (human) (UniProt P04439); test: flow cytometry, IgG1 mAb on cells expressing HLA-A
HLA-B on cells (human) = HLA-B on cells (human) (UniProt P01889); test: flow cytometry, IgG1 mAb on cells expressing HLA-B
[1] = molecular target: human Kallikrein-2 6-His protein (soluble hK2) (human) (UniProt P20151); test: SPR, antibody captured by anti-Fc, soluble hK2 injected

B1: MHGB689 (antibody, human IgG1, kappa, V domains shown)
VH: QVQLQQSGPGLVKPSQTLSLTCVISGDSVSSNRAAWNWIRQSPSRGLEWLGRTYYRSKWYNDYAVSVKSRITINSDTSKNQISLQLNSVTPEDTAVYYCARVRPGIPFDYWGQGTTVTVSS
VL: DIQMTQSPDSLAVSLGERATINCESSQSVLFSSNKKNYLAWYQQKPGQPPKLLIYWASTRESGVPDRFSGSGSGTDFTLTINRLQAEDVAVYYCQQYNSTPWTFGQGTKVEIKR
HLA-C on cells (human)
  GeoMean fluorescence (maximum value): 266
HLA-A on cells (human)
  GeoMean fluorescence (maximum value): 2540
HLA-B on cells (human)
  GeoMean fluorescence (maximum value): 5790

B2: KL2B413 (scFv-LH-Fc) (Fc fusion, not shown: a dimerising Fc or GST)
scFv: EIVLTQSPSFLSASVGDRVTITCRASQGISSYLSWYQQKPGKAPKLLIYATSTLQSGVPSRFSGSGSGTEFTLTISSLQPEDFATYYCQQLNSYPRTFGQGTKVEIKGGSEGKSSGSGSESKSTGGSEVQLVESGGGLVQPGGSLRLSCAASGFTFSSYWMTWVRQAPGKGLEWVANIKQDGSERYYVDSVKGRFTISRDNAKNSLYLQMNSLRAEDTAVYYCARDQNYDILTGHYGMDVWGQGTTVTVSS
[1]
  Kd: 34.3 nM

B3: KL2B359 (scFv-LH-Fc) (Fc fusion, not shown: a dimerising Fc or GST)
scFv: EIVLTQSPATLSLSPGERATLSCRASESVEYFGTSLMHWYQQKPGQPPRLLIYAASNVESGIPARFSGSGSGTDFTLTISSVEPEDFAVYFCQQTRKVPYTFGGGTKVEIKGGSEGKSSGSGSESKSTGGSQVQLQESGPGLVKPSQTLSLTCTVSGNSITSDYAWNWIRQFPGKRLEWIGYISYSGSTTYNPSLKSRVTISRDTSKNQFSLKLSSVTAADTAVYYCATGYYYGSGFWGQGTLVTVSS
[1]
  Kd: 0.7 to 1 nM

B4: KL2B30 (antibody, human IgG4 S228P, kappa, F234A L235A, V domains shown)
VH: QVQLQESGPGLVKPSETLSLTCTVSGGSISSYYWSWIRQPPGKGLEWIGYIYYSGSTNYNPSLKSRVTISVDTSKNQFSLKLSSVTAADTAVYYCAGTTIFGVVTPNFYYGMDVWGQGTTVTVSS
VL: DIQMTQSPSFLSASVGDRVTITCRASQGISSYLAWYQQKPGKAPKFLIYAASTLQSGVPSRFSGSGSGTEFTLTISSLQPEDFATYYCQQLNSYPLTFGGGTKVEIKR
[1]
  Kd: 0.46 nM

B5: KL2B242 (antibody, human IgG4 S228P, lambda, F234A L235A, V domains shown)
VH: QVQLQESGPGLVKPSETLSLTCTVSGGSISSYYWSWLRQPAGSGLEWIGRLYVSGFTNYNPSLKSRVTLSLDPSRNQLSLKLSSVTAADTAVYYCAGDSGNYWGWFDPWGQGTLVTVSS
VL: SYELTQPPSVSVSPGETASITCSGDQLGENYACWYQQKPGQSPVLVIYQDSKRPSGIPERFSGSNSGNTATLTISGTQALDEADYYCQAWDNSIVVFGGGTKLTVLG
[1]
  Kd: 0.04 nM

B6: KL2B53 (antibody, human IgG4 S228P, kappa, F234A L235A, V domains shown)
VH: EVQLVESGGGVVQPGRSLRLSCVASGFTFSSYDIHWVRQAPGKGLEWVAIISYDGSKKDYTDSVKGRFTISRDNSKNTLYLQMDSLRVEDSAVYSCARESGWSHYYYYGMDVWGQGTMVTVSS
VL: DIVMTQSPSSLSASVGDRVTITCRASQDISNYLAWYQQKPGKVPKFLIYAASTLHSGVPSRFSGSGSGTDFTLTISSLQPEDVATYYCQKYNSAPYTFGQGTRLEIKR
[1]
  Kd: 0.08 nM

— patent US20220411504A1
